Laboratory results as given in patent US20200199207A1 (MABYLON, published 2020).

T1: nAra h 6 (peanut, UniProt Q647G9 22-145)
T1 construct: Bought natural allergen; also called naturally extracted Ara h 6
T1 sequence (looked up): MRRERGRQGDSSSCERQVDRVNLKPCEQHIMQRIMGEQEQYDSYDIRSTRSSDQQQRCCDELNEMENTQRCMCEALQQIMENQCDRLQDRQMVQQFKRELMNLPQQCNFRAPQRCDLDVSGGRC

T2: nAra h 2 (peanut, UniProt Q6PSU2 22-172)
T2 construct: Bought natural allergen; also called naturally extracted Ara h 2
T2 sequence (looked up): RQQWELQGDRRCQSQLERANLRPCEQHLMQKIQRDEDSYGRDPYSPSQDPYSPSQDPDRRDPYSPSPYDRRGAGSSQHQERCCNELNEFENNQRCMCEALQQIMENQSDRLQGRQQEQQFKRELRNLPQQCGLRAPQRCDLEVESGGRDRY

T3: nAra h 1 (peanut, UniProt P43238 85-626)
T3 construct: Bought natural allergen; also called naturally extracted Ara h 1
T3 sequence (looked up): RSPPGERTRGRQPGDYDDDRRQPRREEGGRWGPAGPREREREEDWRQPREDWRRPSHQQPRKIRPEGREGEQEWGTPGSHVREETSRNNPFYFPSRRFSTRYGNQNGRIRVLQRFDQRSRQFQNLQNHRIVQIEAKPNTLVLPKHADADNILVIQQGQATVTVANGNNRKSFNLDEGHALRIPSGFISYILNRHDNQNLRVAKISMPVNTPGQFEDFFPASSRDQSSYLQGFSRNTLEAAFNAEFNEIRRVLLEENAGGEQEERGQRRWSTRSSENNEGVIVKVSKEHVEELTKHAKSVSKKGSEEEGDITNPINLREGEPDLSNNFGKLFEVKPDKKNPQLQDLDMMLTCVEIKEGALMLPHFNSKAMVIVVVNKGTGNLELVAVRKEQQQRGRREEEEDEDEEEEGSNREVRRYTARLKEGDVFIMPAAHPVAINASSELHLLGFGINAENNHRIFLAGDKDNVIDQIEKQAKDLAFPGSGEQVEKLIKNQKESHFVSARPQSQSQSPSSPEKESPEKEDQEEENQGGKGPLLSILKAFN


What was measured:
Test in all cases: ELISA, antigen-coated plate
[1] = target: T1, nAra h 6
Procedure: (§1) EC50 binding of exemplary anti-peanut antibodies of the present invention to peanut allergens or peanut extract, was determined by ELISA. Serial dilutions of MAbs (from 1000 ng/ml down to 0.0169 ng/ml) were incubated for 2 hours with antigen-coated plates (coating overnight at 4° C. or 1 h at 37° C. with 1 μg/ml antigen in PBS, followed by wash out and blocking with 2% BSA in PBS). The plates were subsequently washed and binding of MAbs was detected with anti-human HRP-conjugated Fc-gamma-specific secondary antibody (Jackson ImmunoResearch, West Grove, Pa., USA). Concentrations of MAb resulting in half of maximal binding to respective antigens (EC50, ng/ml) were calculated using GraphPad Prism 5 software on sigmoidal dose-response curves (variable slope, 4 parameters) obtained by plotting the log of the concentration versus OD450 nm measurements; for the results see FIG. 3 and table 2.

[2] = target: T2, nAra h 2
Procedure: as §1

[3] = target: T4, nAra h 3 (peanut)
T4 construct: Bought natural allergen; also called naturally extracted Ara h 3
Procedure: as §1

[4] = target: T3, nAra h 1
Procedure: as §1

| Binder | EC50 [1] [µg/mL] | EC50 [2] [µg/mL] | EC50 [3] [µg/mL] | EC50 [4] [µg/mL] |
| --- | --- | --- | --- | --- |
| hm12G10 (antibody, V domains shown, also called 12G10 with mouse Fc; hmMAb 12G10) VH: EVQLLESGGRLLRPGGSLSLSCVASGFYFGDFGMSWVRQVPGKGLEWVSGIDWSGRSTGYVDSMKGRLTISRDNDKSSLYLQMNDLRGEDTAVYYCARVGRLCSGDSCDSMGAFDLWGQGTMVTVSS VL: DIQLTQSPSTLSASIGDSVTITCRASQNIDNWLAWYQQKPGKAPRLLIYKASSLGSGVSSKFRGSGFGTEFTLTITSLQPDDFATYYCQKSNGYSRTFGQGTKVDIK | 0.0278 | 0.0067 | 0.0368 | 0.195 |
| hm37D5 (antibody, V domains shown, also called 37D5 with mouse Fc; hmMAb 37D5) VH: EEQLVESGGRLLRPGESLSLSCAAVGFNFGDFGMAWVRQPPGKGLEWVAGINWSGHSTGFVDSMKGRLTISRDSAKSSLFLQMNSLRGEDTAVYYCARVGRLCSGDICDSMGAFDLWGQGTMVTVSS VL: DIQMTQSPSTLSASIGDRVTITCRASQTIDNWLAWYQQRPGKAPKLLIYQASSLQSGVSSRFRGSGSGTEFTLTITSLQPDDFATYYCQKSNGYSRTFGQGTKVEIK | 0.034 | 0.0052 | 0.0723 | 0.115 |
| hm32B10 (antibody, V domains shown, also called 32B10 with mouse Fc; hmMAb 32B10) VH: QVQLVQSGAEVKKPGASVKVSCRASGYIFRNFDINWVRQATGQGLEWMGWMSPKSGDTGYAQKFQGRVTMTRDTSINTAYMELSSLTSEDSAVYYCARGVDGTNWGQGTRVTVSS VL: DIVMTQSPDSLGVSLGERATISCKSSQSILDNSNNKNFIAWFQQKPGQPPKLLIYWASARESGVPDRFSGSGSGTEFTLTINSLQAEDVAVYYCYQYYSTPHTFGQGTKLDLR |  | 0.0099 |  |  |
| hm2F8 (antibody, V domains shown, also called 2F8 with mouse Fc; hmMAb 2F8) VH: EVQLVESGGGLVKPGGSLRLSCAASGFIFSDYNMNWVRQAPGKGLEWVSSITRSSRTIYYADSVKGRFTISRDNAKNSLHLQMNSLRDADTAVYYCAREDFDVSTGPYYMDVWGNGTTVIVSS VL: EIVLTQSPGTLSLSPGERATLSCRASQSVSNMFLVWYQQKPGQAPRLLMYGASTRATDIPDRFSGSGSGTDFTLTISRLEPEDFAVYYCQQNGNSPYTFGQGTKLEIK |  | 0.0087 |  |  |
| hm4B2 (antibody, V domains shown, also called 4B2 with mouse Fc; hmMAb 4B2) VH: QVQLQEAGPRLVKPSQTLSVTCTVSGASITIGGYYWSWIRQHPGKGLEWMGYIYSNGRTYYNPSLKSRIAMSIDTSKNQFSLKLTSVTAADTAIYFCAREAWETPLWGQGTLITVSS VL: DIQMTQSPSSLSASVGDRVTITCQANQDIVNSLNWFQHKPGTAPKVLIYDASKLETGVPSRFSGSGSGTHFTFTISGLQPEDFATYFCQQYENLPHTFGQGTKLEIR |  | 0.0102 |  |  |
